Source: article doi:10.1101/2022.07.07.499247
Where two headings read alike, the source gives them in different places.

Experiments:
[1] = target: recombinant alpha tubulin of Plasmodium falciparum (Plasmodium falciparum); assay: MST
[2] = target: recombinant alpha tubulin of Plasmodium falciparum (Plasmodium falciparum); assay: MST; remark: listed apart in the source

B1: recombinant Plasmodium falciparum cold shock protein PfCoSP (PF3D7_0109600) (natural protein)
chain: MLRRKIHIHFNSYKKHFFSQLINKEKHDKITGNVIMFDKRKGYGFIKPNDGGPDIFVHYTDICQSRTFEVTNEEKKKLAWNANMDITQKKEEYNFEYDNNNNNNNNKHNKKKEEIKKEFKYLVPGERVKFSVIYDEKSNSSKAINVDYID
- Kd [1]: 274 nM
- Kd [2]: 210 nM
